The values below come from US20120039802A1 (published 2012).

The target in assay [1] is T1, cMet-Fc fusion protein (extracellular domain of the cMet receptor expressed as an Fc-fusion protein) (human, UniProt P08581 25-932).
T1 construct: extracellular domain; also called soluble cMet-Fc-fusion protein; soluble cMet receptor; not shown: Fc part
Description: phage ELISA on cMet-Fc, competitor HGF 100 ng/mL. The method, then:
(§1) These assays were conducted using the peptide-displaying phage discovered from the initial selection and screening campaigns using the first generation peptide libraries. Briefly, 96-well plates were coated overnight at 4 C with 0.5 μg/mL of cMet-Fc fusion protein or TRAIL-Fc fusion protein (background). The plates were blocked for 2 hours at 37 C with 3% BSA in PBST. […] This was followed by an addition of 30 μL of peptide-displaying phage overnight culture to each well. The plates were incubated for 2 hours at room temperature, washed with PBST and cMet-binding peptide-displaying phage was detected using an HRP-conjugated anti-M13 antibody.
A general note: An ELISA detects its analyte on a solid surface through an enzyme-linked reagent.

For assay [2], the target named is T1, cMet-Fc fusion protein (extracellular …). As to the kind of experiment: phage ELISA, cMet-Fc vs TRAIL-Fc. As to the method:
Protein phage ELISAs using peptide-displaying phage isolates from the various selection campaigns were performed to determine specificity of the peptides for cMet versus an unrelated Fc-fusion protein (TRAIL-Fe). Briefly, 384-well plates were coated overnight at 4 C with 0.5 μg/mL of cMet-Fc fusion protein or TRAIL-Fc fusion protein (background). The plates were blocked for 2 hours 37 C with 3% (w/v) BSA in PBS containing 0.05% (v/v) Tween-20 (PBST). The plates were washed with PBST and 100 μL of peptide-displaying phage were added to each well. The plates were incubated for 2 hours at room temperature and washed with PBST. cMet-binding peptide-displaying phage were detected using an HRP-conjugated anti-M13 antibody.

Assay [3] shares this target. Description: phage ELISA on cMet-Fc, competitor HGF 500 ng/mL. As to the method:
as §1

Assay [4] deals with T2, human cMet expressed on 3T3 cells (human, UniProt P08581 25-1390).
T2 construct: whole, on cells; cells fixed with glutaraldehyde; also called cell surface-expressed human cMet; 3T3 cells that over-express human cMet
T2 sequence (P08581 25-1390): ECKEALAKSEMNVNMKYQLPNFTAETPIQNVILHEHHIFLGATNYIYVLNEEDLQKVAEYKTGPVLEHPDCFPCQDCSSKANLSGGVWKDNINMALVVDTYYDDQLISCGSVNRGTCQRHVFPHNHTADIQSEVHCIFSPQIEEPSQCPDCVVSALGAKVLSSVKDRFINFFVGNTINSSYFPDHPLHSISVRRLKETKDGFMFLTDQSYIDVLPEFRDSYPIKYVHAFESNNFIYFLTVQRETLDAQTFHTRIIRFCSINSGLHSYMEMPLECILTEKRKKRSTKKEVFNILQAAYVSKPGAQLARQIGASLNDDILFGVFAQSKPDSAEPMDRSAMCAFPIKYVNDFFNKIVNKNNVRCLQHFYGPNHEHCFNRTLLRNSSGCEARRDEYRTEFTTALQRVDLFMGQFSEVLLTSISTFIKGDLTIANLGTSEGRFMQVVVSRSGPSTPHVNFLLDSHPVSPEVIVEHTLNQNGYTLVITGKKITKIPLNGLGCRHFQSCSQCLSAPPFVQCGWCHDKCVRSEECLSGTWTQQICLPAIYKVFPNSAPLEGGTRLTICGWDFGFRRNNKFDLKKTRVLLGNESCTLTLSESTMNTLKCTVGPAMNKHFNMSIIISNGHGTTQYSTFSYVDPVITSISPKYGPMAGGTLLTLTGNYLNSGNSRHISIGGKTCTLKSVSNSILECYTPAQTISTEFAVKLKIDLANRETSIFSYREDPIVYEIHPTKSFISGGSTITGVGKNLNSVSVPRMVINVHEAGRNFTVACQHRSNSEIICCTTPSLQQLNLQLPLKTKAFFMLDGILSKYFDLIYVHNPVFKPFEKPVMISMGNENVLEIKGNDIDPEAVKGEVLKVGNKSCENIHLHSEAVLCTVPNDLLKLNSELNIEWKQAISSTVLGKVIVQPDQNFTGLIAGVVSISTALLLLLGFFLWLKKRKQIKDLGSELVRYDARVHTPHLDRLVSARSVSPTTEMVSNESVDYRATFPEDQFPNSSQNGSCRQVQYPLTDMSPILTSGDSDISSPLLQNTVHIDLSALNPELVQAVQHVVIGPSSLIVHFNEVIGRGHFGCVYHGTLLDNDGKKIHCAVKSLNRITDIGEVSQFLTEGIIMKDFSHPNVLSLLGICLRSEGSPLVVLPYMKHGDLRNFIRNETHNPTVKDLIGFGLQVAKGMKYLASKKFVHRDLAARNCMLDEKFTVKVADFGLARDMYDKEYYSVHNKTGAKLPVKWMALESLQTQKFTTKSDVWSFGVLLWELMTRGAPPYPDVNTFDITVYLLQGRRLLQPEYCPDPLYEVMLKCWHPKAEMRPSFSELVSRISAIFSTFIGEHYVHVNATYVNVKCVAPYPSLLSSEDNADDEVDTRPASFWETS
As to the kind of experiment: whole cell phage ELISA, 3T3 human cMet vs 3T3. The method, then: Whole cell ELISAs were performed using 3T3 cells that over-express human cMet. […] Briefly, 96-well plates were seeded with 10⁵ cells per well. The plates were centrifuged for 5 minutes at 1600 rpm to pellet the cells. The resulting cell layer was fixed with 0.1% (v/v) glutaraldehyde for 12 minutes at 37 C. […] Peptide-displaying phage also were blocked in the above solution for 1 hour at 37 C. 100 μL of blocked phage was then added to each well and the plates were incubated for 1 hour at room temperature. The plates were washed with PBST. cMet-binding peptide-displaying phage were detected using an HRP-conjugated anti-M13 antibody.

T1 sequence (P08581 25-932): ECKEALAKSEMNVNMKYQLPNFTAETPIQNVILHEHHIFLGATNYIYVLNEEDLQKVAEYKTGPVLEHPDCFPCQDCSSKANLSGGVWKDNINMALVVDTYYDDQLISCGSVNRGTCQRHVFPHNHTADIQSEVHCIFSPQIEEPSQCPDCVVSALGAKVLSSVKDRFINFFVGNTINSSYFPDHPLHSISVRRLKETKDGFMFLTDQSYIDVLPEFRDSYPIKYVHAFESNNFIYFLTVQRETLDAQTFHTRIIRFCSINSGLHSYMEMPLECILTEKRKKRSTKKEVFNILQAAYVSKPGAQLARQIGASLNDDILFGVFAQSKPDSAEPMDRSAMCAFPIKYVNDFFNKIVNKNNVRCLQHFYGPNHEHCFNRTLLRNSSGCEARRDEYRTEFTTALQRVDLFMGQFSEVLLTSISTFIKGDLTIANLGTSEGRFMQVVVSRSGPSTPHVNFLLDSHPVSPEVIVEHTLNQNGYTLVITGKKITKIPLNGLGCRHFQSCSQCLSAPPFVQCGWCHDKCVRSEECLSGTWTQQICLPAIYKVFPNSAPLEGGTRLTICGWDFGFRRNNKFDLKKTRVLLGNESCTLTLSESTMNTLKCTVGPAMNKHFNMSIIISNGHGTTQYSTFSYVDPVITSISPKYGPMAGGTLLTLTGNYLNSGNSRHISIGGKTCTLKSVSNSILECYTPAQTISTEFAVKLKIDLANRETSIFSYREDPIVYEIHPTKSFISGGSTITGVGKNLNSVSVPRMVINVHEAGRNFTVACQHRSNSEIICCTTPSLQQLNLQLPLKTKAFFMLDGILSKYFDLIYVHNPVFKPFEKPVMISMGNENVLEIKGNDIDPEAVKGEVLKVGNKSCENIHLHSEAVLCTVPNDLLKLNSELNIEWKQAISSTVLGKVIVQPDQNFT

B1: 444-B08 peptide-displaying phage (SEQ ID NO: 028) (peptide)
peptide: AGTIRCNLAMMVCMFEGT
Regarding B1, the “% of binding in the absence of HGF” value in assay [1] was 111%; in assay [3], 93%. In addition, in assay [2], the “Protein ELISA (fold over background)” value was 3.6 fold. Also, the “WC ELISA (fold over background)” value in assay [4] turned out to be 1.43 fold.

B2: 465-E09 peptide-displaying phage (SEQ ID NO: 027) (peptide)
peptide: AGTLSCSEEYKSCQLQGT
Take B2: the results for the “% of binding in the absence of HGF” value in assay [1] and in assay [3] were 60% and 77%, respectively. Further, the “Protein ELISA (fold over background)” value in assay [2] is 3.6 fold. For the same molecule, the “WC ELISA (fold over background)” value in assay [4] was determined as 1.3 fold.

B3: 548-F07 peptide-displaying phage (SEQ ID NO: 369) (peptide)
peptide: GSPEMCMMFPFLYPCNHHAP
As for B3, the “% of binding in the absence of HGF” value in assay [3] was 37%.

B4: 465-D04 peptide-displaying phage (SEQ ID NO: 042) (peptide)
peptide: AGHFECPKHQYMCDMPGT
As for B4, the “% of binding in the absence of HGF” value in assay [1] came to 77%; in assay [3], 31%. The “Protein ELISA (fold over background)” value in assay [2] was determined as 3.1 fold. Further, the “WC ELISA (fold over background)” value in assay [4] came out at 1.23 fold.

B5: 274-B07 peptide-displaying phage (SEQ ID NO: 073) (peptide)
peptide: AGETVCYWLNGWFCVDDGT
In the case of B5, the “Protein ELISA (fold over background)” value in assay [2] was 7.8 fold. Further, the “% of binding in the absence of HGF” value in assay [3] worked out at 296%. In assay [4], the “WC ELISA (fold over background)” value was found to be 1.1 fold.

B6: 448-H02 peptide-displaying phage (SEQ ID NO: 033) (peptide)
peptide: AGPLFCFEWPSLCHWGGT
On to B6, for which the results for the “% of binding in the absence of HGF” value in assay [1] and in assay [3] were 113% and 92%, respectively. The “Protein ELISA (fold over background)” value in assay [2] is 3.8 fold. Also, in assay [4], the “WC ELISA (fold over background)” value amounted to 1.43 fold.

B7: 465-D01 peptide-displaying phage (SEQ ID NO: 034) (peptide)
peptide: AGNLPCHWNMSVCDHQGT
Turning to B7, the figures for the “% of binding in the absence of HGF” value in assay [1] and in assay [3] were 235% and 134%, respectively. For the same molecule, the “Protein ELISA (fold over background)” value in assay [2] worked out at 3.3 fold. In assay [4], the “WC ELISA (fold over background)” value was 1.3 fold.

B8: 465-D12 peptide-displaying phage (SEQ ID NO: 030) (peptide)
peptide: AGQMWCAEKNSKCYQWGT
On to B8, for which the results for the “% of binding in the absence of HGF” value in assay [1] and in assay [3] were 34% and 0%, respectively. Further, the “Protein ELISA (fold over background)” value in assay [2] stood at 3.2 fold. Also, the “WC ELISA (fold over background)” value in assay [4] was found to be 1.27 fold.

B9: 470-A02 peptide-displaying phage (SEQ ID NO: 031) (peptide)
peptide: AGQAVCEWGPFWCQMQGT
With B9, the “% of binding in the absence of HGF” value in assay [1] was found to be 78%; in assay [3], 62%. The “Protein ELISA (fold over background)” value in assay [2] was 3.2 fold. Further, in assay [4], the “WC ELISA (fold over background)” value came out at 1.3 fold.

B10: 465-C07 peptide-displaying phage (SEQ ID NO: 041) (peptide)
peptide: AGHTICQHKALGCPANGT
Take B10: the “% of binding in the absence of HGF” value in assay [1] came out at 102%; in assay [3], 138%. The “Protein ELISA (fold over background)” value in assay [2] was found to be 3.1 fold. The “WC ELISA (fold over background)” value in assay [4] amounted to 1.27 fold.

B11: 465-D09 peptide-displaying phage (SEQ ID NO: 003) (peptide)
peptide: GSSHLCNPEFCHFTAP
As to B11, the “% of binding in the absence of HGF” value in assay [1] was 90%; in assay [3], 70%. Moreover, the “Protein ELISA (fold over background)” value in assay [2] came to 3.2 fold. Further, the “WC ELISA (fold over background)” value in assay [4] worked out at 1.3 fold.

B12: 571-C11 peptide-displaying phage (SEQ ID NO: 035) (peptide)
peptide: AGMDFCEGFWFLCIGNAT
With B12, the entries for the “% of binding in the absence of HGF” value in assay [1] and in assay [3] were 107% and 72%, respectively. The “Protein ELISA (fold over background)” value in assay [2] was found to be 3.5 fold. Moreover, the “WC ELISA (fold over background)” value in assay [4] was 1.23 fold.

B13: 470-C02 peptide-displaying phage (SEQ ID NO: 045) (peptide)
peptide: AGFWDCGWMMQDCHMHGT
As for B13, the “% of binding in the absence of HGF” value in assay [1] turned out to be 340%; in assay [3], 227%. For the same molecule, the “Protein ELISA (fold over background)” value in assay [2] stood at 3.9 fold. In addition, the “WC ELISA (fold over background)” value in assay [4] worked out at 1.33 fold.

B14: 546-E02 peptide-displaying phage (SEQ ID NO: 366) (peptide)
peptide: GSHHTCLDGFAGWRCTEVAP
Turning to B14, the “% of binding in the absence of HGF” value in assay [1] is 74%.

B15: 465-B11 peptide-displaying phage (SEQ ID NO: 036) (peptide)
peptide: AGLLGCWDMPMECTGEGT
Turning to B15, the “% of binding in the absence of HGF” value in assay [1] worked out at 97%; in assay [3], 89%. Besides, the “Protein ELISA (fold over background)” value in assay [2] was 3.6 fold. Further, the “WC ELISA (fold over background)” value in assay [4] is 1.27 fold.

B16: 569-H10 peptide-displaying phage (SEQ ID NO: 004) (peptide)
peptide: GSMLMCELWWCRFLAP
With B16, the “% of binding in the absence of HGF” value in assay [1] was 98%; in assay [3], 83%. In addition, in assay [2], the “Protein ELISA (fold over background)” value worked out at 3.4 fold. Further, in assay [4], the “WC ELISA (fold over background)” value was 1.27 fold.

B17: 471-A11 peptide-displaying phage (SEQ ID NO: 040) (peptide)
peptide: AGIWFCNNEEKSCWAYGT
Take B17: the “% of binding in the absence of HGF” value in assay [1] was 85%; in assay [3], 80%. Besides, in assay [2], the “Protein ELISA (fold over background)” value was determined as 3 fold. In addition, the “WC ELISA (fold over background)” value in assay [4] came to 1.37 fold.

B18: 465-E11 peptide-displaying phage (SEQ ID NO: 029) (peptide)
peptide: AGQYLCTQAALGCPEWGT
With B18, the “% of binding in the absence of HGF” value is 33% in assay [1] and 124% in assay [3]. For the same molecule, the “Protein ELISA (fold over background)” value in assay [2] turned out to be 4.3 fold. Moreover, the “WC ELISA (fold over background)” value in assay [4] is 1.23 fold.

B19: 442-E08 peptide-displaying phage (SEQ ID NO: 037) (peptide)
peptide: AGKYMCEGFEWFCEMWGT
Take B19: the “% of binding in the absence of HGF” value amounted to 81% in assay [1] and 75% in assay [3]. Also, in assay [2], the “Protein ELISA (fold over background)” value was found to be 4.1 fold. For the same molecule, the “WC ELISA (fold over background)” value in assay [4] came out at 1.43 fold.

B20: 545-C02 peptide-displaying phage (SEQ ID NO: 365) (peptide)
peptide: GSWRFCGGEYSFQVCQDVAP
As for B20, the “% of binding in the absence of HGF” value in assay [3] was determined as 31%.

B21: 573-E07 peptide-displaying phage (SEQ ID NO: 025) (peptide)
peptide: AGWTWCDLSMMSCIFHGT
For the molecule B21, the “% of binding in the absence of HGF” value in assay [1] is 77%; in assay [3], 82%. Moreover, the “Protein ELISA (fold over background)” value in assay [2] was 3.2 fold. Besides, in assay [4], the “WC ELISA (fold over background)” value is 1.37 fold.

B22: 465-C01 peptide-displaying phage (SEQ ID NO: 032) (peptide)
peptide: AGPYSCHSESHDCKLMGT
Turning to B22, the figures for the “% of binding in the absence of HGF” value in assay [1] and in assay [3] were 267% and 23%, respectively. Besides, the “Protein ELISA (fold over background)” value in assay [2] was determined as 3.2 fold. For the same molecule, in assay [4], the “WC ELISA (fold over background)” value is 1.27 fold.

B23: 445-E04 peptide-displaying phage (SEQ ID NO: 043) (peptide)
peptide: AGGNWCSFYEELCEWLGT
Regarding B23, the “% of binding in the absence of HGF” value was determined as 127% in assay [1] and 102% in assay [3]. The “Protein ELISA (fold over background)” value in assay [2] turned out to be 4.2 fold. Besides, in assay [4], the “WC ELISA (fold over background)” value was 1.37 fold.

B24: 465-C11 peptide-displaying phage (SEQ ID NO: 038) (peptide)
peptide: AGKTVCQKWESVCSGMGT
As for B24, the “% of binding in the absence of HGF” value in assay [1] worked out at 41%; in assay [3], 4%. Further, in assay [2], the “Protein ELISA (fold over background)” value was 3.1 fold. In assay [4], the “WC ELISA (fold over background)” value was 1.3 fold.

B25: 465-F10 peptide-displaying phage (SEQ ID NO: 039) (peptide)
peptide: AGKQWCVVWEETCDQLGT
In the case of B25, the “% of binding in the absence of HGF” value in assay [1] turned out to be 61%; in assay [3], 42%. Also, the “Protein ELISA (fold over background)” value in assay [2] turned out to be 3.7 fold. Besides, in assay [4], the “WC ELISA (fold over background)” value is 1.33 fold.

B26: 465-F08 peptide-displaying phage (SEQ ID NO: 026) (peptide)
peptide: AGVTNCNLSTMFCFLHGT
Regarding B26, the “% of binding in the absence of HGF” value in assay [1] turned out to be 68%; in assay [3], 116%. In addition, in assay [2], the “Protein ELISA (fold over background)” value was determined as 3.8 fold. Further, the “WC ELISA (fold over background)” value in assay [4] amounted to 1.3 fold.

B27: 465-B06 peptide-displaying phage (SEQ ID NO: 044) (peptide)
peptide: AGGHWCLELKHLCPPYGT
Take B27: the entries for the “% of binding in the absence of HGF” value in assay [1] and in assay [3] were 89% and 57%, respectively. In addition, in assay [2], the “Protein ELISA (fold over background)” value stood at 4.1 fold. The “WC ELISA (fold over background)” value in assay [4] is 1.23 fold.
